Test results published in patent US20190218304A1 (INNATE PHARMA, published 2019).

Tests used:
CD39 mutant 5 = molecular target: T1, CD39 mutant 5 (human, UniProt P49961 1-510); test: flow cytometry on Hek-293T cells transfected with CD39 mutant 5 [panel M5]
T1 construct: Expressed on transfected Hek-293T cells; also called M5
T1 chain: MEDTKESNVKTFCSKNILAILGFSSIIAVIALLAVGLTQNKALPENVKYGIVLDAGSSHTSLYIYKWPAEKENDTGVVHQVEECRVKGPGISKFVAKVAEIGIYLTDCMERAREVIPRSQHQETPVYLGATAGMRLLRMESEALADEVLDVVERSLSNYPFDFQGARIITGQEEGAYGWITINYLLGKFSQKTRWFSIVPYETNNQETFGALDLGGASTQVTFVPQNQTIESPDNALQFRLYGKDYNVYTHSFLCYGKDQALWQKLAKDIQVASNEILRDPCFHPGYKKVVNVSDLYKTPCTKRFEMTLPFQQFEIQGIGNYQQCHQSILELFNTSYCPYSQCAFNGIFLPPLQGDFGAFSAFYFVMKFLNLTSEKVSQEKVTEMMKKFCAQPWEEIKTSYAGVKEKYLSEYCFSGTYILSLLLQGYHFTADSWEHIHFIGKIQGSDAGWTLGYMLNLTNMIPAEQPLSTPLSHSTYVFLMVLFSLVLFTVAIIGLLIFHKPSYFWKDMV

Human CD39-L4 = molecular target: T2, Human CD39-L4 (human, UniProt O75356 25-428); test: ELISA on coated recombinant human CD39-L4 [panel huCD39 L4]
T2 construct: Recombinant protein coated in ELISA; also called NTPDase5; ENTPD5
T2 sequence: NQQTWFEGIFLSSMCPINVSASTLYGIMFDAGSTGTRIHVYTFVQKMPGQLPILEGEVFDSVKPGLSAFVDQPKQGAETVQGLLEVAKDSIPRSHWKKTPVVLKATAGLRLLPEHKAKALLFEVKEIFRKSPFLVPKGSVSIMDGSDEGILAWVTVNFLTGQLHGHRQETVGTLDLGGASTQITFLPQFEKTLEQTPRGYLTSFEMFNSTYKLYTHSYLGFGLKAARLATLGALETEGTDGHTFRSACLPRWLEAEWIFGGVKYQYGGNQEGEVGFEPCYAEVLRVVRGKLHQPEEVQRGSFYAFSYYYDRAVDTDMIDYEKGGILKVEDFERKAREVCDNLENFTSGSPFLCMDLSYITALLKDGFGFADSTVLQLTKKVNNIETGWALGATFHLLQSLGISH
Procedure: Wells were washed in TBS Tween 20, and further saturated 2H at RT in TBS Blocking buffer. Dose range concentration of primary antibody was incubated in TBS blocking buffer for 2 h at RT. Wells were washed in TBS Tween 20. […] Optical density was measured on Enspire™ at OD=450.

B1: antibody I-394 (antibody, human IgG1, kappa, V domains shown)
VH: EVQLQQSGPELVKPGASVKMSCKASGYTFTDYNMHWVKQSHGRTLEWIGYIVPLNGGSTFNQKFKGRATLTVNTSSRTAYMELRSLTSEDSAAYYCARGGTRFAYWGQGTLVTVSA
VL: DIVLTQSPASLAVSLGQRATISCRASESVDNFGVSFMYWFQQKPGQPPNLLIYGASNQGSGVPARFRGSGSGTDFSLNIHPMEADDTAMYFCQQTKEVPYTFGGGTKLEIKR
notes: The hybridoma-derived mouse form was used in early screening
Q: Does B1 bind (CD39 mutant 5)?
A: binds

Q: Does B1 bind (Human CD39-L4)?
A: no binding
